Experimental data: patent publication US20190178879A1
Each block holds one substance with its values, some of them ahead of it.

What was measured:
[1] = target: human CD3 cell surface antigen on PBMCs (human) (UniProt P07766); assay: flow cytometry on human PBMCs, detected with rat anti-mouse PE
[2] = target: human CD3 cell surface antigen on PBMCs (human) (UniProt P07766); assay: flow cytometry on human PBMCs, detected with anti-PEG/HL647 label
[3] = target: human CD45 on PBMCs (human) (UniProt P08575); assay: as above
[4] = target: anti-pHIS antibody (clone J099B12, Biolegend), fluorescently labeled with AlexaFluor 488; assay: flow cytometry competition, release format: soluble pHIS added after anti-pHIS antibody was bound to pHIS-conjugated particles
[5] = target: anti-pHIS antibody (clone J099B12, Biolegend), fluorescently labeled with AlexaFluor 488; assay: flow cytometry competition, inhibition format: soluble pHIS preincubated with anti-pHIS antibody before pHIS-conjugated particles
[6] = target: anti-pHIS/CD3 TAC (tetrameric antibody complex of anti-pHIS antibody and anti-CD3 antibody); assay: cell-based or functional assay

Chain of UniProt P07766 (P07766 23-207): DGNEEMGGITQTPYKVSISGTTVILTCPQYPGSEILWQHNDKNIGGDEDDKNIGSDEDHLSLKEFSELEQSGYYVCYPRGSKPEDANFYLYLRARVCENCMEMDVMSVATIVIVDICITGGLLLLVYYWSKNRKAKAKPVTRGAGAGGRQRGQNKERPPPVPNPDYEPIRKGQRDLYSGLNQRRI
Chain of UniProt P08575 (P08575 26-1306): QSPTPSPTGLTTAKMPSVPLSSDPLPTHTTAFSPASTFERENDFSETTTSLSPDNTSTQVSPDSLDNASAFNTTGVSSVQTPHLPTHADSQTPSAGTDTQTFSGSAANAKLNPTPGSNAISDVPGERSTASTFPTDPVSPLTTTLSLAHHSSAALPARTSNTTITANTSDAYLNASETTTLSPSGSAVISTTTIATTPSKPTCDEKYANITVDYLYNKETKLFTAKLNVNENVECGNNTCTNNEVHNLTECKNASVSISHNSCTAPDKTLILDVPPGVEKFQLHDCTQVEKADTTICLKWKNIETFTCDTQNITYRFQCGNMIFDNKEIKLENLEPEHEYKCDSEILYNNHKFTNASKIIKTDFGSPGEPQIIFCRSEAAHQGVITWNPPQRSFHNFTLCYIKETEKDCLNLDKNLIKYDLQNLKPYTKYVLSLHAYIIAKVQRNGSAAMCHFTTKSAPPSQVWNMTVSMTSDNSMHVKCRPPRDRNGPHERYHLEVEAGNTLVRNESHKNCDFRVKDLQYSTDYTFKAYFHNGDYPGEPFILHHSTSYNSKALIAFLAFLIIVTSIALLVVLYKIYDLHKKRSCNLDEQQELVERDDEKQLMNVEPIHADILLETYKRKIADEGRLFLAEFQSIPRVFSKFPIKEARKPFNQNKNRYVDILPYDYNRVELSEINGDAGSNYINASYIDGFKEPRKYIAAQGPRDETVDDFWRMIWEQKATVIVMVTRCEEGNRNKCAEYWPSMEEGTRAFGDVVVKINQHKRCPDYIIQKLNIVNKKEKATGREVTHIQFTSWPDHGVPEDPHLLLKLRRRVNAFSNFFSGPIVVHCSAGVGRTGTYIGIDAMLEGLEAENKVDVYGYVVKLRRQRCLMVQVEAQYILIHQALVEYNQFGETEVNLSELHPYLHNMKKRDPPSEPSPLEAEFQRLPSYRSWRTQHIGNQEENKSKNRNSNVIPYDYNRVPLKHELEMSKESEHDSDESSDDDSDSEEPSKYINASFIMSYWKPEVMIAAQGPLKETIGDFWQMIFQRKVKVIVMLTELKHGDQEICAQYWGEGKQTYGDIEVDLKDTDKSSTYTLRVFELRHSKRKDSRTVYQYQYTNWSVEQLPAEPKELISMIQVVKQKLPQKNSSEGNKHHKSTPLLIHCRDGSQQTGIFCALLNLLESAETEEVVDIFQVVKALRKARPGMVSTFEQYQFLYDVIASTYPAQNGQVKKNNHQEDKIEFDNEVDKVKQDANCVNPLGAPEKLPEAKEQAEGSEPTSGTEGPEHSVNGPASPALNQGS

percent of lymphocytes with a CD3+ signal [1]: 87.8%
Substance: CD3 antibody (clone UCHT1)

percent of cells with a positive signal [2]: 83.4%
Substance: CD3 antibody (clone UCHT1) PEGylated with 30 kDa PEG

percent of cells with a positive signal [3]: > 96%
Substance: CD45 antibody (clone MEM-28) PEGylated with 30 kDa PEG

IC50 [4]: 237 µM
IC50 [5]: 1.9 µM
% Rel (release efficiency), average, n = 2 [6]: 69.3%
particle release efficiency [6]: 72%
Substance: soluble pHIS (polyhistidine) peptide, 0.84 kDa
